In the RNAGym collection of RNA variant scans (doi:10.7554/elife.80360) one finds self-cleavage data, which are given here for 39 variants.

To fix the notation:
B1: CPEB3 Ribozyme (parent)
chain: GGGGGCCACAGCAGAAGCGUUCACGUCGCGGCCCCUGUCAGAUUCUGGUGAAUCUGCGAAUUCUGCUGU

This data set covers variants of B1. Kind of data set: self-cleavage, relative activity (ratio to wild type); higher = more cleavage; co-transcriptional.
Turning to GGGGGCCACAGCAGAAGCGUUCACGUCGCGGCCUCUGUCAGAUUCUGGAGAAUCUGCGAAUUCUGCUGU [C34U U49A], the self-cleavage is 0.996.

As to GGGGGCCACAGCAGAAGCGUUCACGUCGCGGCCCAUGUCAGAUUCUGGUUAAUCUGCGAAUUCUGCUGU [C35A G50U], the self-cleavage was found to be 0.287. As to GGGGGCCACAGCAGAAGCGUUCACGUCGCGGCCCAUCUCAGAUUCUGGUGAAUCUGCGAAUUCUGCUGU [C35A G37C], the self-cleavage stood at 0.254. Under GGGGGCCACAGCAGAAGCGUUCACGUCGCGGCCCAUAUCAGAUUCUGGUGAAUCUGCGAAUUCUGCUGU [C35A G37A] stands 0.221. GGGGGCCACAGCAGAAGCGUUCACGUCGCGGCCCAUUUCAGAUUCUGGUGAAUCUGCGAAUUCUGCUGU [C35A G37U]: the self-cleavage was 0.237.

As for GGGGGCCACAGCAGAAGCGUUCACGUCGCGGCCUCUGUCAGAUUCUGGUGAAUCUGCGAAGUCUGCUGU [C34U U61G], the self-cleavage turned out to be 0.711. Regarding GGGGGCCACAGCAGAAGCGUUCACGUCGCGGCCUCUGUCAGAUUCUGGUGAAUCUGCGAAAUCUGCUGU [C34U U61A], the self-cleavage was 0.952. As for GGGGGCCACAGCAGAAGCGUUCACGUCGCGGCCUCUGUCAGAUUCUGGUGAAUCUGCGAAUUCUGCGGU [C34U U67G], the self-cleavage came to 0.982. The figure for GGGGGCCACAGCAGAAGCGUUCACGUCGCGGCCUCUUUCAGAUUCUGGUGAAUCUGCGAAUUCUGCUGU [C34U G37U] is 0.247. On to GGGGGCCACAGCAGAAGCGUUCACGUCGCGGCCUCUCUCAGAUUCUGGUGAAUCUGCGAAUUCUGCUGU [C34U G37C], for which the self-cleavage was 0.226. Consider GGGGGCCACAGCAGAAGCGUUCACGUCGCGGCCUCUGUCAGAUUCUGGUCAAUCUGCGAAUUCUGCUGU [C34U G50C], for which the self-cleavage amounted to 0.999. On to GGGGGCCACAGCAGAAGCGUUCACGUCGCGGCCUCUGUCAGAUUCUGGUAAAUCUGCGAAUUCUGCUGU [C34U G50A], for which the self-cleavage is 1.03. The figure for GGGGGCCACAGCAGAAGCGUUCACGUCGCGGCCCAUGUCAGAUUCUGGUGAAUCUGCUAAUUCUGCUGU [C35A G58U] is 0.286; for GGGGGCCACAGCAGAAGCGUUCACGUCGCGGCCCAUGUCAGAUUCUGGUGAAUCUGCGAAUUAUGCUGU [C35A C63A] it is 0.276; for GGGGGCCACAGCAGAAGCGUUCACGUCGCGGCCUCUGUCAGAUUCUGUUGAAUCUGCGAAUUCUGCUGU [C34U G48U] it is 0.983.

Consider GGGGGCCACAGCAGAAGCGUUCACGUCGCGGCCUCUGUCAGAGUCUGGUGAAUCUGCGAAUUCUGCUGU [C34U U43G], for which the self-cleavage was 0.708. Under GGGGGCCACAGCAGAAGCGUUCACGUCGCGGCCUCUGUCAGAUUCUGGUGAAUCAGCGAAUUCUGCUGU [C34U U55A] stands 0.925.

On to GGGGGCCACAGCAGAAGCGUUCACGUCGCGGCCUCUGUCAGAUUCUGGUGAAUCGGCGAAUUCUGCUGU [C34U U55G], for which the self-cleavage was 0.84. Under GGGGGCCACAGCAGAAGCGUUCACGUCGCGGCCCAUGUCAAAUUCUGGUGAAUCUGCGAAUUCUGCUGU [C35A G41A] stands 0.264. The figure for GGGGGCCACAGCAGAAGCGUUCACGUCGCGGCCCAUGUCAUAUUCUGGUGAAUCUGCGAAUUCUGCUGU [C35A G41U] is 0.277. Turning to GGGGGCCACAGCAGAAGCGUUCACGUCGCGGCCCAUGUCAGAUUCUGGUGAAUAUGCGAAUUCUGCUGU [C35A C54A], the self-cleavage came out at 0.315. With GGGGGCCACAGCAGAAGCGUUCACGUCGCGGCCCAUGUCAGAUUCUGGUGAAUUUGCGAAUUCUGCUGU [C35A C54U], the self-cleavage stood at 0.252.

With GGGGGCCACAGCAGAAGCGUUCACGUCGCGGCCUCCGUCAGAUUCUGGUGAAUCUGCGAAUUCUGCUGU [C34U U36C], the self-cleavage is 0.922. With GGGGGCCACAGCAGAAGCGUUCACGUCGCGGCCUCGGUCAGAUUCUGGUGAAUCUGCGAAUUCUGCUGU [C34U U36G], the self-cleavage was 0.256. The figure for GGGGGCCACAGCAGAAGCGUUCACGUCGCGGCCCAUGUCAGAUUCUGGUGAAUCUGCGACUUCUGCUGU [C35A A60C] is 0.193; for GGGGGCCACAGCAGAAGCGUUCACGUCGCGGCCCAUGUCAGAUUCUGGUGAAUCUGCGAGUUCUGCUGU [C35A A60G] it is 0.24; for GGGGGCCACAGCAGAAGCGUUCACGUCGCGGCCCAUGUUAGAUUCUGGUGAAUCUGCGAAUUCUGCUGU [C35A C39U] it is 0.183. The figure for GGGGGCCACAGCAGAAGCGUUCACGUCGCGGCCCAUGUGAGAUUCUGGUGAAUCUGCGAAUUCUGCUGU [C35A C39G] is 0.3; for GGGGGCCACAGCAGAAGCGUUCACGUCGCGGCCUCUGUCAGAUUCUCGUGAAUCUGCGAAUUCUGCUGU [C34U G47C] it is 0.968.

In the case of GGGGGCCACAGCAGAAGCGUUCACGUCGCGGCCUCUGUCAGAUUCUUGUGAAUCUGCGAAUUCUGCUGU [C34U G47U], the self-cleavage is 0.995. Regarding GGGGGCCACAGCAGAAGCGUUCACGUCGCGGCCUCUGUCAGAUUCUAGUGAAUCUGCGAAUUCUGCUGU [C34U G47A], the self-cleavage amounted to 0.958. The figure for GGGGGCCACAGCAGAAGCGUUCACGUCGCGGCCCAUGUCAGAUUCUGGUGAAUCUACGAAUUCUGCUGU [C35A G56A] is 0.218. Under GGGGGCCACAGCAGAAGCGUUCACGUCGCGGCCCAUGUCAGAUUCUGGUGAAUCUCCGAAUUCUGCUGU [C35A G56C] stands 0.253; under GGGGGCCACAGCAGAAGCGUUCACGUCGCGGCCCAUGUCAGAUUCUGGUGAAUCUUCGAAUUCUGCUGU [C35A G56U], 0.223; under GGGGGCCACAGCAGAAGCGUUCACGUCGCGGCCCAUGUCAGAUUCUGGUGAAUCUGCGAAUUCUGAUGU [C35A C66A], 0.22. As to GGGGGCCACAGCAGAAGCGUUCACGUCGCGGCCCAUGUCAGAUUCUGGUGAAUCUGCGAAUUCUGGUGU [C35A C66G], the self-cleavage is 0.294. GGGGGCCACAGCAGAAGCGUUCACGUCGCGGCCCAUGUCAGAUUCUGGUGAAUCUGCGAAUUCUGUUGU [C35A C66U]: the self-cleavage came to 0.259. As for GGGGGCCACAGCAGAAGCGUUCACGUCGCGGCCCAUGUCAGAUUCUGGUGAAUCUGUGAAUUCUGCUGU [C35A C57U], the self-cleavage was 0.191. Under GGGGGCCACAGCAGAAGCGUUCACGUCGCGGCCCAUGUCAGAUUCUGUUGAAUCUGCGAAUUCUGCUGU [C35A G48U] stands 0.249.
